From patent publication US20200102373A1 (COLORADO STATE UNIVERSITY RESEARCH FOUNDATION, published 2020)
Substitutions are numbered along the chain they refer to.

Key:
H2B-mCh-OrigTag = target: T1, H2B-mCh-OrigTag; assay: live-cell fluorescence imaging of U2OS cells co-expressing the GFP-fused scFv and H2B-mCh-OrigTag; co-localization in the nucleus
T1 construct: not shown: Histone H2B, mCherry and the linkers between the parts
T1 peptide: MSLPGRWKPKM

H2B-mCh-TrunTag = target: T2, H2B-mCh-TrunTag; assay: live-cell fluorescence imaging of U2OS cells co-expressing the GFP-fused scFv and H2B-mCh-TrunTag; co-localization in the nucleus
T2 construct: not shown: Histone H2B, mCherry and the linkers between the parts
T2 peptide: LPGRWKPKM

[1] = target: T3, mitoNEET (Mito) fused to mCherry and a C-terminal smHA tag (Mito-mCh-smHA) (Homo sapiens (Human), UniProt Q9NZ45 1-33); assay: live-cell imaging, U2OS cells, FB-GFP fluorescence at mitochondria over background
T3 construct: also called smHA tagged Mito
T3 peptide: YPYDVPDYA

[2] = target: T3, mitoNEET (Mito) fused to mCherry and a …; assay: live-cell imaging, U2OS cells; reference Mito-mCh-1×HA
[3] = target: T4, mCherry-H2B without HA tag (mCh-H2B) (UniProt P06899 1-126); assay: nuclear to cytoplasmic fluorescence ratio of FB-GFP in living U2OS cells lacking the HA tag
[4] = target: T4, mCherry-H2B without HA tag (mCh-H2B); assay: nuclear to cytoplasmic fluorescence ratio of the GFP-fused scFv in living U2OS cells with mCh-H2B lacking the HA tag

B1: χ15F11^HIV chimeric anti-HIV protease scFv fused to GFP (scFv)
scFv: MAEVKLVESGGGLVKPGGSLKLSCAASGFTFSRFGMHWVRQTPEKRLEWVAYISSGSSTIYYADTVKGRFTISRDNAKNTLYLQMSSLRSEDTAIYYCARSGGIERYDGTYYVMDYWGQGTTLTVSSGGGGSGGGGSGGGGSDIVLTQSPASLTVSLGQRATISCRASESVDYYGKSFMNWYQQKPGQPPKLLIYAASNQGSGIPARFSGSGSGTDFTLNIHPVEEEDAATYYCQQSKEVPWTFGAGTKLEI
notes: also called 15F11-HIV-FB; anti-HIV protease frankenbody
- binding result (H2B-mCh-OrigTag): binds
- binding result (H2B-mCh-TrunTag): binds

B2: χ15F11^HA chimeric anti-HA scFv fused to mEGFP (HA frankenbody, FB-GFP), expressed in cells (scFv, not shown: large carriers)
scFv: MAEVKLVESGGGLVKPGGSLKLSCAASGFTFSSYGMSWVRQTPEKRLEWVATISRGGSYTYYPDSVKGRFTISRDNAKNTLYLQMSSLRSEDTAIYYCARRETYDEKGFAYWGQGTTLTVSSGGGGSGGGGSGGGGSDIVLTQSPASLTVSLGQRATISCKSSQSLLNSGNQKNYLTWYQQKPGQPPKLLIYWASTRESGIPARFSGSGSGTDFTLNIHPVEEEDAATYYCQNDNSHPLTFGAGTKLEIGGGGSGGGGSGGGGSGGGGSGGGGS
notes: also called 15F11-HA-FB; pCMV-15F11-HA-mEGFP
- mitochondria to background fluorescent intensity ratio (Mito/Bg) [1]: 16.6 ratio
- Mito/Bg ratio of smHA tagged Mito against 1×HA tagged Mito [2]: 4.7 times
- binding result [3]: no binding

B3: χ2E2^HA chimeric anti-HA scFv fused to mEGFP (scFv, not shown: large carriers)
scFv: B2 scFv with K5Q, G12D, E44D, R89K, I95M, T117S, L118V, T149A, A243G
notes: also called 2E2-HA-FB; pCMV-2E2-HA-mEGFP
- binding result [4]: no binding
